The target of the experiment is apolipoprotein E on the surface of very low-density lipoproteins (human) (UniProt P02649). The experiment is described as follows: AFM-based force spectroscopy; DENV C covalently attached to the AFM tip; VLDL adsorbed on freshly cleaved mica; TEE-KCl buffer pH 7.4 (20 mM Tris-HCl, 100 mM KCl, 1 mM EDTA, 1 mM EGTA); loading rate 4 nN/s; with or without rabbit anti-human APOE antibody (1 or 100 ug/L) or an isotype-matched control antibody.

Here are results for one substance from paper PMC4498383.

Sequence of UniProt P02649 (P02649 19-317): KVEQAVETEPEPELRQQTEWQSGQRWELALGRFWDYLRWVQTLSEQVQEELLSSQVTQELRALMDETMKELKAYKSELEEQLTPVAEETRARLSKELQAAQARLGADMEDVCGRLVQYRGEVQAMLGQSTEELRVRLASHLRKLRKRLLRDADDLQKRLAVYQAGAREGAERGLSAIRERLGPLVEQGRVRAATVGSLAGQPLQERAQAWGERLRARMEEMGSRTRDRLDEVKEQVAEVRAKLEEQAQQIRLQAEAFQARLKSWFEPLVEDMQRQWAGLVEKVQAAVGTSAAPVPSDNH

On to “Dengue virus capsid (C) protein (natural protein)”, for which the rupture force, 1st Gaussian peak (DENV C-VLDL, no antibody) was determined as 29.7 pN and the rupture force, 2nd Gaussian peak (DENV C-VLDL, no antibody) worked out at 52.1 pN.
